Target: Recombinant nucleolin fused with a polyhistidine (His)6 tag, made in Pichia GS115 (human) (UniProt P19338)
Assay: SPR (BIAcore 2000), ES amine-coupled on a CM5 chip, NL 62.5-500 nM in flow, 25° C., 1:1 Langmuir model

Sequence of UniProt P19338 (P19338 other isoform, or with tags, fused parts or gaps limits assumed): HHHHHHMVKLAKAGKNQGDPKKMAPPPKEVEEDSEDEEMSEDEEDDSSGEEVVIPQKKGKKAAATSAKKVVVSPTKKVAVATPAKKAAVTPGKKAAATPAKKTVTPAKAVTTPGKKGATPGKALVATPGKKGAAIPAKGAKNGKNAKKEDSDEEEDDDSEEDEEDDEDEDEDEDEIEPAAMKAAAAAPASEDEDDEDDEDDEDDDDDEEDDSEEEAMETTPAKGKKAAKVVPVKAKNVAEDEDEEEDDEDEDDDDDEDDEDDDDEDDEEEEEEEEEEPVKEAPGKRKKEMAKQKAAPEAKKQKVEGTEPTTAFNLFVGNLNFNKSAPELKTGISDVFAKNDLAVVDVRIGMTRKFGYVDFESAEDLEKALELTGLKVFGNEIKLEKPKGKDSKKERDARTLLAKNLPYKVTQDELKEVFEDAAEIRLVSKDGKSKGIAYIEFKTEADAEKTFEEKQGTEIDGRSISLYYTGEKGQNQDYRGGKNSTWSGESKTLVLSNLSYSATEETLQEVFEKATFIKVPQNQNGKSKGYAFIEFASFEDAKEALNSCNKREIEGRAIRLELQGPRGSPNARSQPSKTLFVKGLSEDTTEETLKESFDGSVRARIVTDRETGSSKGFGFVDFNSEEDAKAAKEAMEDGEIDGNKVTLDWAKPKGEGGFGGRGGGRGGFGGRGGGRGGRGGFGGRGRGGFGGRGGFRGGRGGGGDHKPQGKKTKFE

Question: Which Kd does the source give for “Endostatin (recombinant, with N-terminal His-tag) (from UniProt P39060 1572-1754) (ligand)” here?
Answer: 23.2 nM
